B1: Structure-specific endonuclease subunit SLX4 (Homo sapiens), Q8IY92 (parent)
chain: MKLSVNEAQLGFYLGSLSHLSACPGIDPRSSEDQPESLKTGQMMDESDEDFKELCASFFQRVKKHGIKEVSGERKTQKAASNGTQIRSKLKRTKQTATKTKTLQGPAEKKPPSGSQAPRTKKQRVTKWQASEPAHSVNGEGGVLASAPDPPVLRETAQNTQTGNQQEPSPNLSREKTRENVPNSDSQPPPSCLTTAVPSPSKPRTAQLVLQRMQQFKRADPERLRHASEECSLEAAREENVPKDPQEEMMAGNVYGLGPPAPESDAAVALTLQQEFARVGASAHDDSLEEKGLFFCQICQKNLSAMNVTRREQHVNRCLDEAEKTLRPSVPQIPECPICGKPFLTLKSRTSHLKQCAVKMEVGPQLLLQAVRLQTAQPEGSSSPPMFSFSDHSRGLKRRGPTSKKEPRKRRKVDEAPSEDLLVAMALSRSEMEPGAAVPALRLESAFSERIRPEAENKSRKKKPPVSPPLLLVQDSETTGRQIEDRVALLLSEEVELSSTPPLPASRILKEGWERAGQCPPPPERKQSFLWEGSALTGAWAMEDFYTARLVPPLVPQRPAQGLMQEPVPPLVPPEHSELSERRSPALHGTPTAGCGSRGPSPSASQREHQALQDLVDLAREGLSASPWPGSGGLAGSEGTAGLDVVPGGLPLTGFVVPSQDKHPDRGGRTLLSLGLLVADFGAMVNNPHLSDVQFQTDSGEVLYAHKFVLYARCPLLIQYVNNEGFSAVEDGVLTQRVLLGDVSTEAARTFLHYLYTADTGLPPGLSSELSSLAHRFGVSELVHLCEQVPIATDSEGKPWEEKEAENCESRAENFQELLRSMWADEEEEAETLLKSKDHEEDQENVNEAEMEEIYEFAATQRKLLQEERAAGAGEDADWLEGGSPVSGQLLAGVQVQKQWDKVEEMEPLEPGRDEAATTWEKMGQCALPPPQGQHSGARGAEAPEQEAPEEALGHSSCSSPSRDCQAERKEGSLPHSDDAGDYEQLFSSTQGEISEPSQITSEPEEQSGAVRERGLEVSHRLAPWQASPPHPCRFLLGPPQGGSPRGSHHTSGSSLSTPRSRGGTSQVGSPTLLSPAVPSKQKRDRSILTLSKEPGHQKGKERRSVLECRNKGVLMFPEKSPSIDLTQSNPDHSSSRSQKSSSKLNEEDEVILLLDSDEELELEQTKMKSISSDPLEEKKALEISPRSCELFSIIDVDADQEPSQSPPRSEAVLQQEDEGALPENRGSLGRRGAPWLFCDRESSPSEASTTDTSWLVPATPLASRSRDCSSQTQISSLRSGLAVQAVTQHTPRASVGNREGNEVAQKFSVIRPQTPPPQTPSSCLTPVSPGTSDGRRQGHRSPSRPHPGGHPHSSPLAPHPISGDRAHFSRRFLKHSPPGPSFLNQTPAGEVVEVGDSDDEQEVASHQANRSPPLDSDPPIPIDDCCWHMEPLSPIPIDHWNLERTGPLSTSSPSRRMNEAADSRDCRSPGLLDTTPIRGSCTTQRKLQEKSSGAGSLGNSRPSFLNSALWDVWDGEEQRPPETPPPAQMPSAGGAQKPEGLETPKGANRKKNLPPKVPITPMPQYSIMETPVLKKELDRFGVRPLPKRQMVLKLKEIFQYTHQTLDSDSEDESQSSQPLLQAPHCQTLASQTYKPSRAGVHAQQEATTGPGAHRPKGPAKTKGPRHQRKHHESITPPSRSPTKEAPPGLNDDAQIPASQESVATSVDGSDSSLSSQSSSSCEFGAAFESAGEEEGEGEVSASQAAVQAADTDEALRCYIRSKPALYQKVLLYQPFELRELQAELRQNGLRVSSRRLLDFLDTHCITFTTAATRREKLQGRRRQPRGKKKVERN

Variants of: B1
Settings: with plk1_human PLK1, P53350
Sequence of plk1_human PLK1, P53350 (P53350 whole entry): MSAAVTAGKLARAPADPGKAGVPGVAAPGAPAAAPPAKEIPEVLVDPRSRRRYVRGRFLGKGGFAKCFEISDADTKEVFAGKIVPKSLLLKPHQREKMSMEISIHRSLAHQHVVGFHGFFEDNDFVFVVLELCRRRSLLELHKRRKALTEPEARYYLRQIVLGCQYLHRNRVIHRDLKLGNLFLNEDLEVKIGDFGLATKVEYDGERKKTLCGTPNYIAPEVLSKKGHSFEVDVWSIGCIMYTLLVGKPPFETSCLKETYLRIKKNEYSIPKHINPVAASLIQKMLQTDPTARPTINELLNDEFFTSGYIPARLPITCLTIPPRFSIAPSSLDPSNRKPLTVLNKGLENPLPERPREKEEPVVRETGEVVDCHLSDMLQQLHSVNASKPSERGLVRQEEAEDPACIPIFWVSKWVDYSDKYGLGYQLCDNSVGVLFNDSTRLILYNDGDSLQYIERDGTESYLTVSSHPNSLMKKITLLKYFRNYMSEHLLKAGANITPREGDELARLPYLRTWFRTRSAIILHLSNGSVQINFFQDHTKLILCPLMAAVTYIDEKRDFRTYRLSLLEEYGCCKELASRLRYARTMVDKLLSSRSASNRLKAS

Row | effect of a mutation on the interaction | Variant
1 | decreasing interaction | S1453A

From IntAct's records for PubMed 19596235
